Test results taken from US10077295B2, “Glycoproteins having lipid mobilizing properties and therapeutic uses thereof” (Aston University, priority 2010, dated 2018).

How the values were obtained:
[1] = target: T1, human β1-AR (Homo sapiens, UniProt P08588); experiment: [125I] ZAG binding to crude membranes of CHO-K1 β1 cells
T1 construct: host or cells: CHO-K1
Description: [^125I] labelling of ZAG. One iodo bead that had been washed and dried was incubated with Na [^125I] (1 mCi per 100 μg protein) for 5 min in PBS, then ZAG (100 μg protein) was added and left for a further 15 min. The reaction was terminated by removal of the iodo bead, while free Na [^125I] was removed using a Sephadex G25 column eluted with 0.1MNaI. The [^125I] ZAG was concentrated against PBS using a Microcon microconcentrator with a filter cut-off of Mr 10,000. The specific activity of the [^125I] ZAG was 8 Cimg protein^1.
For binding studies cells were sonicated in 2 mM Tris HCl, pH7.5, containing […] and crude total membranes were pelleted by centrifugation (13,000 g; 15 min) at 4° C. Binding studies were carried out at 37° C. by incubating membranes (500 μg protein) in 0.4 ml 50 mM Tris HCl, pH 7.5, containing 0.5 mM MgCl2 for 60 min with various concentrations of [^125I] ZAG (3,000 to 15,000 cpm) in the absence or presence of 100 μM non-labelled ZAG. The membranes were then precipitated by centrifugation at 13000 g for 20 min, the supernatant was removed and the [^125I] bound to the pellet was quantitated using a Packard Corbra Model 5005 Auto-gamma counter. Binding was analysed using non-linear regression analysis (GraphPad Prism, Version 5.04). Specific binding was regarded as the amount of labelled ZAG displaced by non-radioactive ZAG.

[2] = test system: ob/ob mice; experiment: Glucose tolerance test in ob/ob mice after 3 days of ZAG; format: in vivo, mouse
Excerpt: FIG. 2A is a graphical diagram showing glucose tolerance of ob/ob mice treated with ZAG. Plasma glucose levels in ob/ob mice in the fed state either treated with ZAG (▪) or PBS (♦) for 3 days after […]. p<0.001 from PBS. Blood samples were removed from the tail vein at intervals after glucose administration and used for the measurement of glucose and insulin.
FIG. 2B is a graphical diagram showing plasma insulin levels in ob/ob mice treated with ZAG after oral administration of glucose (1 g/kg). p<0.001 from PBS.
To investigate this, a glucose tolerance test was performed, on fed animals, after 3 days of ZAG administration (FIG. 2A). […] The glucose uptake in gastrocnemius muscle of ZAG treated mice was greater than the response to insulin in non-treated animals.

[3] = test system: gastrocnemius muscle of ob/ob mice; experiment: Proteasome activity and Western blots in gastrocnemius muscle of ZAG-treated ob/ob mice; format: in vivo, mouse
Description: Measurement of Proteasome and Caspase Activity. […] Gastrocnemius muscle was homogenised in 20 mM Tris, pH7.5, 2 mM ATP, 5 mM MgCl2 and 50 mM DTT at 4° C., sonicated and centrifuged at 18,000 g for 10 min at 4° C. to pellet insoluble material, and the resulting supernatant was used to measure ‘chymotrypsin-like’ enzyme activity in the presence or absence of the proteasome inhibitor lactacystin (10 μM). Only lactacystin suppressible activity was considered as true proteasome activity. The activity of caspase-3 was determined by the release of AMC from AcAsp.Gly.Val.Asp.AMC (SEQ ID NO: 3), and the activity of caspase-8 was determined by the release of 7-amino-4-trifluromethylcoumarin (AFC) from the specific substrate Z-Ile Glu Phe Thr Asp-AFC (SEQ ID NO: 4), using the supernatant from above (50 μg protein), and either the caspase-3 or -8 substrate (10 μM) for 1 h at 37° C., in the presence or absence of the caspase-3 (AcAspGluValAsp-CHO) (SEQ ID NO: 5) or caspase-8 (Ile Glu Phe Thr Asp-CHO) (SEQ ID NO: 6) inhibitors (100 μM). The increase in fluorescence due to […] was determined as above, while the increase in fluorescence due to AFC was measured with an excitation wavelength of 400 nm and an emission wavelength of 505 nm. The difference in values in the absence and presence of the caspase inhibitors was a measure of activity.
Western Blot Analysis. Freshly excised gastrocnemius muscles were washed in PBS and lysed in PHOSPHOSAFE™ Extraction Reagent for 5 min at room temperature followed by sonication at 4° C. The lysate was cleared by centrifugation at 18,000 g for 5 min at 4° C. and samples of cytosolic protein (5 μg) were resolved on 12% sodium dodecyl sulfate-polyacrylamide gel electrophoresis at 180V for approximately 1 h. This was followed by transference to 0.45 μm nitrocellulose membranes, which were then blocked with 5% Marvel in Tris-buffered saline, pH 7.5, at 4° C. overnight. Both primary and secondary antibodies were used at a dilution of 1:1000 except anti-myosin (1:250). Incubation was for 1 h at room temperature, and development was by ECL. Blots were scanned by a densitometer to quantify differences.

[4] = test system: ob/ob mice; experiment: Insulin tolerance test in ob/ob mice administered ZAG for 3 days; format: in vivo, mouse
Description: An insulin tolerance test was also carried out in ob/ob mice administered ZAG for 3 days (FIG. 23). Animals were administered two doses of insulin (10 and 20 U/kg) by i.p. injection and blood glucose was measured over the next 60 min. […] The glucose disappearance curve for 20 U/kg+PBS was almost identical to 10 U/kg+ZAG, so at this dose level ZAG is reducing the requirement for insulin by 50%, but this can be overcome by giving more insulin.

[5] = test system: ob/ob mice; experiment: Interval / long-term administration of ZAG in ob/ob mice (pilot study); format: in vivo, mouse
Description: While not wanting to be limited by theory, it may be that the subjects are receiving too much ZAG or that there is receptor desensitization as is seen with TNF. A pilot study was performed with 2 mice in each group to determine optimal scheduling of ZAG delivery.

[6] = test system: WAT, BAT and gastrocnemius muscle of male Wistar rats; experiment: Western blots of tissues from rats treated with ZAG; format: in vivo, rat
Description: Samples of epididymal WAT, BAT and gastrocnemius muscle excised from rats treated with ZAG or PBS for 5 days were homogenized in 0.25M sucrose, 1 mM HEPES, pH 7.0 and […], and then centrifuged for 10 min at 4,500 rpm. Samples of cytosolic protein (10 μg) were resolved on 12% sodium dodecylsulphate polyacrylamide gel electrophoresis and the proteins were then transferred onto 0.45 μm nitrocellulose membranes, which had been blocked with 5% Marvel in Tris-buffered saline, pH 7.5, at 4° C. overnight, and following four 15 min washes with 0.1% Tween in PBS, incubation with the secondary antibody was performed for 1 h at room temperature. Development was by ECL.

T1 sequence (P08588 whole entry): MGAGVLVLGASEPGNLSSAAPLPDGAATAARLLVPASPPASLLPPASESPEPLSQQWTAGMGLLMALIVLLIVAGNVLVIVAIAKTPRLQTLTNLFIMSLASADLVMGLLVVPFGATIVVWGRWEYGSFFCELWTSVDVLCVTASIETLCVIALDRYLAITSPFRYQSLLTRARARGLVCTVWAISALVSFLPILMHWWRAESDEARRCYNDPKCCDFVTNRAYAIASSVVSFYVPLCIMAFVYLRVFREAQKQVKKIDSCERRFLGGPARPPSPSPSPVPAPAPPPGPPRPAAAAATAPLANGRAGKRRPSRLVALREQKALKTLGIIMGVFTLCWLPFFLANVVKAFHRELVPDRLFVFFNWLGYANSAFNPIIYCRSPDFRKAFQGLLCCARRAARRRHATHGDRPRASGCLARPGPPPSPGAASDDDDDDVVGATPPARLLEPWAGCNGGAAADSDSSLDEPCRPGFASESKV

B1: ZAG: recombinant full length human zinc-α2-glycoprotein (SEQ ID NO: 1) secreted by transfected HEK293F cells; lipid mobilizing factor (protein, listed as Homo sapiens)
chain: QENQDGRYSLTYIYTGLSKHVEDVPAFQALGSLNDLQFFRYNSKDRKSQPMGLWRQVEGMEDWKEDSQLQKAREDMETLKDIVEYYNDSNGSHVLQGRFGCEIENNRSSGAFWKYYYDGKDYIEFNKEIPAWVPFDPAAQITKQKWEAEPVYVQRAKAYLEEECPATLRKYLKYSKNILDRQDPPSVVVTSHQAPGEKKKLKCLAYDFYPGKIDVHWTRAGQVQEPELRGDVLHNGNGTYQSWVVVAVPPQDTAPYSCHVQHSSLAQPLVVPWEAS
- binding to the β1-AR [1]: no binding
- blood glucose levels in glucose tolerance test ([2]; fed ob/ob mice, after 3 days of ZAG): only a small rise
- plasma insulin levels in glucose tolerance test ([2]; ob/ob mice, 60 min of observation): significantly lower
- expression of 20S proteasome α-subunits and p42 ([3]; gastrocnemius muscle): decreased expression
- phosphorylated forms of PKR and eIF2α ([3]; gastrocnemius muscle): reduction in the level of phosphorylated forms
- proteasome 'chymotrypsin-like' enzyme activity ([3]; gastrocnemius muscle): decreased activity
- myosin levels ([3]; skeletal muscle): increased
- reduction of the requirement for insulin ([4]; 10 U/kg insulin+ZAG vs 20 U/kg+PBS): 50%
- sensitivity to insulin ([4]; insulin 10 U/kg i.p.): increased sensitivity to insulin
- weight loss ([5]; from a 90 g mouse, in about 3 weeks): 8 to 10 g
- outcome of long-term daily administration ([5]; ob/ob mice): cessation of weight loss
- expression of ATGL and HSL in epididymal adipose tissue ([6]; rats): two-fold increase
- expression of UCP-1 and -3 in BAT and WAT ([6]; rats): almost two-fold
- phosphorylated forms of PKR and eIF2 α-subunit in gastrocnemius muscle ([6]; rats): significant reduction
- expression of ZAG in skeletal muscle, WAT and BAT ([6]; rats treated for 10 days): significantly increased
